Laboratory results taken from patent US20140107043A1 (INSTITUT PASTEUR, published 2014).
Where no end group is shown, it is not given here. [ ]: non-standard residue; d: D form. Phe(4-CH2COOH) = N[C@@H](Cc1ccc(CC(=O)O)cc1)C(=O)O; GABA = NCCCC(=O)O

How the values were obtained:
Experiment in all cases: cell-based or functional assay
[1] = molecular target: envelope gp120 of HIV-1/Ba-L (R5-tropic strain), on virus (HIV-1 strain Ba-L)
[2] = molecular target: envelope gp120 of HIV-1-LAI (X4-tropic strain), on virus (HIV-1 strain LAI, UniProt P03377 33-516, limits assumed)
[3] = molecular target: envelope gp120 of HIV-1 92US723 (clade B, R5/X4), on virus (HIV-1 strain 92US723)
[4] = molecular target: envelope gp120 of HIV-1 92HT599 (clade B, X4), on virus (HIV-1 strain 92HT599)
[5] = molecular target: envelope gp120 of HIV-1 92UG029 (clade A, X4), on virus (HIV-1 strain 92UG029)
[6] = molecular target: envelope gp120 of HIV-1 98IN017 (clade C, X4), on virus (HIV-1 strain 98IN017)
[7] = molecular target: envelope gp120 of HIV-1 SF162 (clade B, R5), on virus (HIV-1 strain SF162, UniProt P19550 32-502)
[8] = molecular target: envelope gp120 of HIV-1 96USHIPS4 (clade B, R5/X4), on virus (HIV-1 strain 96USHIPS4)

B1: P3Y (H-gamma-Abu-S-Y-D-Y-S-Y-D-Y-S-Y-D-Y-S-OH) (peptide)
peptide: SYDYSYDYSYDYS
modifications: N-terminal gamma-aminobutyric acid (NH2-(CH2)3-CO-)
> 500 nM: ED50, HIV-1 replication in PBMC [1] | ED70, HIV-1 replication in PBMC [1] | ED90, HIV-1 replication in PBMC [1] | ED50, HIV-1 replication in PBMC [2] | ED70, HIV-1 replication in PBMC [2] | ED90, HIV-1 replication in PBMC [2]

B2: E13 (H-gamma-Abu-(Glu)13-OH) (peptide)
peptide: EEEEEEEEEEEEE
modifications: N-terminal gamma-aminobutyric acid (NH2-(CH2)3-CO-)
> 500 nM: ED50, HIV-1 replication in PBMC [1] | ED70, HIV-1 replication in PBMC [1] | ED90, HIV-1 replication in PBMC [1] | ED50, HIV-1 replication in PBMC [2] | ED70, HIV-1 replication in PBMC [2] | ED90, HIV-1 replication in PBMC [2]

B3: P3pF (H-gamma-Abu-S-pF-D-pF-S-pF-D-pF-S-pF-D-pF-S-OH) (peptide)
peptide: [GABA]S[Phe(4-CH2COOH)]D[Phe(4-CH2COOH)]S[Phe(4-CH2COOH)]D[Phe(4-CH2COOH)]S[Phe(4-CH2COOH)]D[Phe(4-CH2COOH)]S-OH
modifications: N-terminus assumed
SMILES: NCCCC(=O)N[C@@H](CO)C(=O)N[C@@H](Cc1ccc(CC(=O)O)cc1)C(=O)N[C@@H](CC(=O)O)C(=O)N[C@@H](Cc1ccc(CC(=O)O)cc1)C(=O)N[C@@H](CO)C(=O)N[C@@H](Cc1ccc(CC(=O)O)cc1)C(=O)N[C@@H](CC(=O)O)C(=O)N[C@@H](Cc1ccc(CC(=O)O)cc1)C(=O)N[C@@H](CO)C(=O)N[C@@H](Cc1ccc(CC(=O)O)cc1)C(=O)N[C@@H](CC(=O)O)C(=O)N[C@@H](Cc1ccc(CC(=O)O)cc1)C(=O)N[C@@H](CO)C(=O)O
> 500 nM: ED50, HIV-1 replication in PBMC [1] | ED70, HIV-1 replication in PBMC [1] | ED90, HIV-1 replication in PBMC [1] | ED50, HIV-1 replication in PBMC [2] | ED70, HIV-1 replication in PBMC [2] | ED90, HIV-1 replication in PBMC [2]

B4: P3YSO3 (H-gamma-Abu-S-YSO3-D-YSO3-S-YSO3-D-YSO3-S-YSO3-D-YSO3-S-OH) (peptide)
peptide: SXDXSXDXSXDXS
modifications: N-terminal gamma-aminobutyric acid (NH2-(CH2)3-CO-); sulfotyrosine (YSO3) at the six X positions of S-X-D-X-S-X-D-X-S-X-D-X-S
> 500 nM: ED50, HIV-1 replication in PBMC [3] | ED70, HIV-1 replication in PBMC [3] | ED90, HIV-1 replication in PBMC [3] | ED50, HIV-1 replication in PBMC [4] | ED70, HIV-1 replication in PBMC [4] | ED90, HIV-1 replication in PBMC [4] | ED50, HIV-1 replication in PBMC [5] | ED70, HIV-1 replication in PBMC [5] | ED90, HIV-1 replication in PBMC [5] | ED50, HIV-1 replication in PBMC [6] | ED70, HIV-1 replication in PBMC [6] | ED90, HIV-1 replication in PBMC [6] | ED50, HIV-1 replication in PBMC [7] | ED70, HIV-1 replication in PBMC [7] | ED90, HIV-1 replication in PBMC [7] | ED50, HIV-1 replication in PBMC [8] | ED70, HIV-1 replication in PBMC [8] | ED90, HIV-1 replication in PBMC [8]
